The record followed here is the DeepSol protein solubility set.

The series can be described thus: soluble on expression in E. coli; label from the status in PepcDB or PDB records.
Take “MPISSSSARRAEPAPRPLAEFHPVVRQWFERHFAAPTPAQVEAWPAIREGLSTLVAAPTGSGKTLTAFLAAIDALVVEGLAAGGELADATQVVYVSPLKALSNDIRINLEQPLAGIREELARLGLPDVDIRSAVRTGDTPQVERGAMRKRPPHILVTTPESLYILLGSESGRQMLAGVRSVIVDEIHALAGSKRGSHLALSLERLQALCPRPLLRIGLSATQKPIEKVARFLVGASGNPRDPACRIVDVGYTRPRDLGIEVPPVALEAVMSNDTWELVYDRLAHLAGEHRTTLVFVNTRRMAERVTRFLAERLGSRQVAAHHGSLAKELRLDAEQRLKAGQLKVLVATASLELGIDIGDVELVCQLSSPRSIAAFLQRVGRSGHSVGGTPKGRLFPTSRDDLVECAALLDSVRRGELDSLVLPRQPLDVLAQQIVAEVACQEWREDDLYRLVIRAEPYAGLERERFDEVLRMLAEGYHSRLGVRGAYLHRDALNGLLRGRRGARLTALTSGGTIPDTGDYSVLLEPQGLLVGTVNEDFAVESLAGDVFQLGNTSYRIIRIEPGRVRVEDAQGQPPNIPFWLGEAPGRSDELSASVARLRDTLDELLGEGQALPEGRRLEPAIAWLGATLGLDDGAARQIVEYLARARQALGGLPGSRRLVLERFFDESGGMQLIIHSPHGSRLNRAWGLALRKRFCRSFNFELQAAATEDAIILSLSTSHSFPLDEVWRYLHSASAEHLLVQAVLDAPLFGVRWRWNLTTSLGLPRYAGGRKVPPQLLRMKSEDLLASVFPDQVACLENIVGEREVPDHPLVAQTLDDCLHEAMDCEGWLALLRDMESGAVDLLARDLPAPSALAAEILTARPYAYLDDAPLEERRTQAVQNRRWSDPESADDLGALDLEAIEAVRGEAWPEASNADEMHEALNSLGFLTSGEAEANPGWGEWLAQLSEQRRAGRLDCAGSTLWLAAERLPAMRLVHPAAKVPDAFQAPRGYPPPDSAEAATVELTRARLGGFGPRTAGQLAADLGIGLADQQYALAALEREGYVLRGRFSPGATEEEWCERHLLARIHRYTVKRLRREIEPVERADFMRFLFDWQRLAPGTRGRGAESLATVVEQLEGFQAAAAAWESELLAARVADYASHWLDQLCRSGRIVWARLAGRSKAAGGPLRSAPIVLLPRRELGLWSVLQRDAPEPELSPRAARVLEVLREQGASFFDELSQDAHLLRSELENALGELVSVGRVNADSFAGLRTLLMPADKRSRQERRSRGLPGGMQDAGRWAPLRRAKAEEAGQRLPAEVLEHVARTLLRRYGVVAWRLLEREADWLPPWRELLRVYHRLEARGEIRGGRFIAGLAGEQFALAEAVGLLREVRKRPPDGAMLVVSAVDPLNLVGGLLPGERVPAVTGNRLLYRDGAPLAALVAGKVRMLAEVDGETAQQIRALLI”: the “soluble on expression in E. coli” value is “not soluble”. With “MGSDKIHHHHHHMSKPDRVVLIGVAGDSGCGKSTFLNRLADLFGTELMTVICLDDYHSLDRKGRKEAGVTALDPRANNFDLMYEQVKALKNGETIMKPIYNHETGLIDPPEKIEPNRIIVIEGLHPLYDERVRELLDFSVYLDIDDEVKIAWKIQRDMAERGHSYEDVLASIEARRPDFKAYIEPQRGHADIVIRVMPTQLIPNDTERKVLRVQLIQREGRDGFEPAYLFDEGSTIQWTPCGRKLTCSYPGIRLAYGPDTYYGHEVSVLEVDGQFENLEEMIYVEGHLSKTDTQYYGELTHLLLQHKDYPGSNNGTGLFQVLTGLKMRAAYERLTSQAAPVAASV”, the “soluble on expression in E. coli” value is given as “not soluble”. In the case of “MSSSRNFDLEYDDYKERRNAAGMGSRASSRNGGRFKPIDKEKEKEKKEIGDYGLPKNEYKMQGYDERSSDVGADPLASVRTLRNNLRVMSLEHRDKDEPVKSHLCQSACDDLSKAEKQLVDLSHKRSDAVVRGDSRQAEQIAKDMDRVKSDAIRNAYSDLMMEDGTMKAFGVNSKWTPDKNPMPSDDWKPMTPMKPRKRAETPKGRKTESRQSNRGNNDNGDQRMTSKATTRSPERRVIPTEPSKPKTTRKNQRLSTIGHVPEAIPVVDTPLPGGSTVQDDPYKMPTYVGRCPHCQLTESGLGRAGGMEKHFAKYCKVMTSCKYCMKLTMVSQLTDHLIYRCEFLQDTMEACNDCGLAIEKEDQKRGGSHPMCRGRRPPTGAQWCPLCTIAVEDNEENWREHLLNNCYNNQRRDGPEKDPWEMKQEQEDILLGAKEKKKREMEEEERLKKEAEIRRQQQQVVVNNTGYPGKMIDADKLVVALQEIQERKKAEKKKKLKDIEKET”, the “soluble on expression in E. coli” value is given as “not soluble”.

Turning to “MGSDKIHHHHHHMPEQNSFPPEVDHTRPNPARIYDYGLGGHHNFAADRDQFEKLLEVDPDARLVVSANRAFLRRAVRYCLRQGITQFLDLGSGIPTVGNVHEAAHQLNPRARVVYVDNEPIAVAHTRRLLRENENAEIVQADLRDPDAILGAPETQRLLDLSKPVGLMMVAVLHWVPSADVAGLLSRYREVLAPGSYLAISHLTSEHLPEQMGEVEDVFAETTEPVVYRPRSEAVKLFEGFELVPPGVVYTSQWQSEPYEMVEPPERTKIWAAVGRKL”, the “soluble on expression in E. coli” value is reported as “not soluble”. For “MQTPHILIVEDELVTRNTLKSIFEAEGYDVFEATDGAEMHQILSEYDINLVIMDINLPGKNGLLLARELREQANVALMFLTGRDNEVDKILGLEIGADDYITKPFNPRELTIRARNLLSRTMQ”, the “soluble on expression in E. coli” value is reported as “soluble”.

In the case of “MIKLSEKGVFLASNNEIIAEEHFTGEIKKEEAKKGTIAWSILSSHNTSGNMDKLKIKFDSLASHDITFVGIVQTAKASGMERFPLPYVLTNCHNSLCAVGGTINGDDHVFGLSAAQRYGGIFVPPHIAVIHQYMREMMAGGGKMILGSDSHTRYGALGTMAVGEGGGELVKQLLNDTWDIDYPGVVAVHLTGKPAPYVGPQDVALAIIGAVFKNGYVKNKVMEFVGPGVSALSTDFRNSVDVMTTETTCLSSVWQTDEEVHNWLALHGRGQDYCQLNPQPMAYYDGCISVDLSAIKPMIALPFHPSNVYEIDTLNQNLTDILREIEIESERVAHGKAKLSLLDKVENGRLKVQQGIIAGCSGGNYENVIAAANALRGQSCGNDTFSLAVYPSSQPVFMDLAKKGVVADLIGAGAIIRTAFCGPCFGAGDTPINNGLSIRHTTRNFPNREGSKPANGQMSAVALMDARSIAATAANGGYLTSASELDCWDNVPEYAFDVTPYKNRVYQGFVKGATQQPLIYGPNIKDWPELGALTDNIVLKVCSKILDEVTTTDELIPSGETSSYRSNPIGLAEFTLSRRDPGYVSRSKATAELENQRLAGNVSELTEVFARIKQIAGQEHIDPLQTEIGSMVYAVKPGDGSAREQAASCQRVIGGLANIAEEYATKRYRSNVINWGMLPLQMAEVPTFEVGDYIYIPGIKAALDNPGTTFKGYVIHEDAPVTEITLYMESLTAEEREIIKAGSLINFNKNRQM”, the “soluble on expression in E. coli” value is recorded as “soluble”. Consider “MFISVVIPTYDRQPILEKCLRALEAQQLSASTVINEYEIVLVDDGSTDGTLDWLATHKEEFPHVRWFEQDHAGPAAARNLGVEKARGDIIIFIDSDLVVLDNFLQAHADALLQGQEKLGSDRFFTYGAVINTCNFDNPTAEPYKITDFSAAFFATGNVAIPKHWLEQAGLFDTGFQLYGWEDLELGVRLKNLGLQLIKCPAAVGYHWHPPFNLEQVPNLIEKEIQRGRMGVLFYKKHPTWEVRMMIQMTWLHRLLWGILSLNGALNENTMAPLLQWLIKSGKPQLALEIARIFLNWYNVKGVYQAYSQMQKVSLEHHHHHH”, for which the “soluble on expression in E. coli” value is given as “soluble”.

Take “GSMYQLQFINLVYDTTKLTHLEQTNINLFIGNWSNHQLQKSICIRHGDDTSHNQYHILFIDTAHQRIKFSSFDNEEIIYILDYDDTQHILMQTSSKQGIGTSRPIVYERLV”: the “soluble on expression in E. coli” value was “soluble”.

In the case of “MGSVSTGNAGSGTVGTSTTSRADVMTFQPSSLPVSYVGETYNVQVGVTGGVGPYGYRLTAGTLPPGLKFAGGALSGTPTKAGSYSFAIQATDANLSTRVQEYTMNVDALPPLALKPTLPPGEIRGETRIPVTIQAPRAVRAARLSWDLGKDVQVTRVQPADAGSVVFWQQRGSVLTVDLGFRTVPRPDARIALITVKPAKAVTLKADALGYEARDGSGKMLVDKKRPGSEPVKPAEQPGDPKVDPKAADQKATDQKATDPKTVDPKTVTPADTVEGGPLPSPALPTPSLPPTLPPVTTPPANTPPVPTPTPPANQPAPAPAPQPAPAPQPTPPSGTGGALEHHHHHH”, the “soluble on expression in E. coli” value was “not soluble”. The entry for “MDPKKADIIRLEALPQDLLGGIVAKVGATTAEDFHNCILVCKELGASANDKHVFKTLNLALLVKKPLSGTQTPSYYENMS” is “soluble”; for “MDEEKDLAQRKKEAAERAKQLARERLAARQADEQARSAAETGSLKTPPNSNGSQTETTKGEATEPASANDLALAKKRAAEEARAKAAQLRRQGEAAASGAATGDDLEAAKRKAAEEARAKAAQLRRQREAAAPGAATGDDLEAAKRKAAEEARARAAELRRQREAAESGAEDDLELAKKKAVAAAKARAAALAKQKAAEASGDDDELAKQKAAAAAKAKAAAAAKARAAALAKQQGGAGDEGAKQKAAAAARAKAEETDGGTGRSAAPSPNDPLLEKYVRIIHEHLGSDVLEDAYINRLAKDVPTLVVKKEAYYKVAELLKGHEQLRFDYLSELHGTDFQTHMEVYVHLYSYPNRHPVALKVKIERDNPEVDSLVPLWPGANWPECEAYDLLGIRFRGHPNLIRIFLGEQWVGHPLRKDYEPYDAEV” it is “not soluble”; for “MMDFEDFGNPLAGKPLSQADKAAAVLLAMGKGVAGKLLKFFTQHELQMIISSAQTLRVIPPDELAQIVAEFEDLFTEGTGLMDNAKAIESILEEGLTPEEVDSLLGRRAAFQAYEASIWDRLQEAEPEFVGKFLLREHPQTIAYILSMLPSSFGAKVLLTIPEEQRADIMNRTVNMKEVSPTAAQIIEKRVVNLINEIEAERNAGGSTKVADLMNELDKPQVDTLLSSLETLSKEAANKVKPKIFLFDDLMFMPQRSRVLLLNDVSADVLTMALRGATVEIKECVLSSISPRQRRMIESDLAVPQASLNTREVAIARRAVAQEAIRLANSGQIQLKDVAAEEQSAAA” it is “not soluble”. As to “MIITLFVMVSGNKVKYEGSGKSGLWMSNLEKSDKTSIGPNYFLNLYWQGSKKEEKWTVVERITLYVDGEKYQDDNVDEYDLSEYTGDEMPGGGRMEDHISTFDYMPEDEVIGHDVLVKVEWRTGQKKQTEAIKLHKKPWYKKLEHHHHHH”, the “soluble on expression in E. coli” value was “not soluble”. “VDAFVGTWKLVDSKNFDDYMKSLGVGFATRQVGNMTKPTTIIEVNGDTVIIKTQSTFKNTEISFKLGVEFDETTADDRKVKSIVTLDGGKLVHVQKWNGQETSLVREMVDGKLILTLTHGTAVCTRTYEKQA”: the “soluble on expression in E. coli” value is “soluble”. The same measure for “MGSDKIHHHHHHMIVTEYELLVCLAEELNMRKSAEKLFLSQPALSQRLQTIESRWNTKIFIRTQKGLLLTPEGEAIVRHASSVIEREHTIQEKLEAMEGVVRGTLRIACASVVAQMWLPRVLKAFSRTYPNVQISLVTGWSSEVTQQLAAGNVHIGIVRGSSTWKSVQKPLFNDKLILVDTEITKIEEVFQTNRPFIQFRSDSNYYQVIQDYWQRNFGKMPRQAMLMDQMETSRQMALNGIGFAILPEVTMIGYTDKINKIPLTEKDGSILSRETNLLTYEQSLSLPQVKAFLEITDKFLEQVK”: “not soluble”; for “MKTSSYLLKAGVDYPTNWDEFVDWFHDEQSCTSYLYALRWPNGFICPSCSSHQSPYQLSNGKLKCHACRFQCSVTSSTLFDKTRTPMKSWFAAVWFITNQKNGVSALGVQRLLGLGSYQTAWSLMHKLRYAMVDPERDKLSGIVEVDETLIGGVIPKSSIKNQQGKRKAIVLVAVELLSPSGFGRIRLRQVESATKEHIHQFIQDVIEPGSTICSDGSQAYKQIDKKGYKHNRMVHLGSSVPAHETMAGVHRVSSLCKRWLLGTYQGAVKAKQLDYYLDEFTFRFNRRKSDSRGLLFYRLLEQAVRSKPITYQSIKNRLEHHHHHH”: “not soluble”.
